The source of these data is patent US20100143254A1.

The target of this assay is human FcRn (human) (UniProt P55899). Nature of the assay: SPR (BIAcore) steady state, immobilized IgG, human FcRn 16-2860 nM, pH 6.0. (In general: In SPR one partner is held on a chip, and binding of the other changes the refractive index at the surface.)
human FcRn (human), sequence (P55899 24-297 limits assumed, chain 1 of 2): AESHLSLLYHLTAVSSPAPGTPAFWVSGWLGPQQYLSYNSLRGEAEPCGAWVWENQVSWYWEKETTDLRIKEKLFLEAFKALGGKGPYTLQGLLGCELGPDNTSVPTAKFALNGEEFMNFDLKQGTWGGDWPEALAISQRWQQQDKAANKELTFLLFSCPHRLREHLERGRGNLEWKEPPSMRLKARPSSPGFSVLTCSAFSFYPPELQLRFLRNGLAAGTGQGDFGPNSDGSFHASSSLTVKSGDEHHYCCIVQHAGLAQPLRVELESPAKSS
human FcRn (human), sequence (P61769 21-119 limits assumed, chain 2 of 2, further chain): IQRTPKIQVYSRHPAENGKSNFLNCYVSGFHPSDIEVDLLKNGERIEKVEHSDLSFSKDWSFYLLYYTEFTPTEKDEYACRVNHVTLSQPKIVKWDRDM
For the substance MEDI-524 (wild type) (antibody), the Kd (as a rule, the concentration at which binding is half-saturated) amounted to 2.68 µM.

In turn, MEDI-524 G385S + Q386I (antibody) registered a Kd of 3.03 µM. The Kd values of the last two substances are within 1.5-fold of each other.

MEDI-524 L309N (antibody) showed a Kd of 15.9 µM. Compared with the last substance, the Kd is about 5.2-fold higher.

With MEDI-524 R255V (antibody), the Kd amounted to 11.3 µM.
